This series has as its system T1, Dab2 N-terminal phosphotyrosine binding (N-PTB) domain, residues 1-241 of human Disabled-2, wild type.
T1 sequence: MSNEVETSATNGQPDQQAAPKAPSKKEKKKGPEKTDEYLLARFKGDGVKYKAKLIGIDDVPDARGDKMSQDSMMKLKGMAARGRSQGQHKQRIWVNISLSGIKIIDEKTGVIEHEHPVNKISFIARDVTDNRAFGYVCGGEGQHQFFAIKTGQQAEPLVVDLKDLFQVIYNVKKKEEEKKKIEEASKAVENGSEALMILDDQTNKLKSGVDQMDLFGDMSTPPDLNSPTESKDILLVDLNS

Experimental findings from patent US20120264212 are described below.

Regarding thrombin, the “thrombin limited proteolysis (SDS-PAGE)” value was “thrombin cleaved the N-PTB domain leaving a ˜25 kDa protease-resistant product”.
